# Test results published in patent US20220081480A1 (Merck KGaA, published 2022).
# T1: cyno TIM-3-His6 (cynomolgus monkey)
# T1 construct: Made in HEK293 cells; not shown: 6-His tag
# T1 chain: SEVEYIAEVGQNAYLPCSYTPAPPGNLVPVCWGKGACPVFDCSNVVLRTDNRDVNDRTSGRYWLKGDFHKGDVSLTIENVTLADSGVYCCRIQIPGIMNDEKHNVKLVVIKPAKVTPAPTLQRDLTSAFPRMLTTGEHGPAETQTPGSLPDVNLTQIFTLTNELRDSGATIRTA
# Tests used:
# [1] = target: T2, wild-type TIM-3 (hu TIM-3), HEK-expressed (human, UniProt Q8TDQ0 22-202, limits assumed); test: SPR
# T2 construct: Soluble protein of the mutagenesis study
# [2] = target: T3, human TIM-3 on huTIM-3-CHO-S cells (human, UniProt Q8TDQ0 22-202); test: FACS on CHO-S-hTIM-3 cells
# T3 construct: Membrane-anchored human TIM-3 ECD (NP_116171) stably expressed on CHO-S cells; also called CHO-S-hTIM3; CHO-S-hTIM-3; not shown: membrane anchor of the expression vector, not described
# cyno TIM-3-His6 = target: T1, cyno TIM-3-His6; test: SPR (Biacore)
# [3] = target: T4, human TIM-3 ECD with 6-His tag (hu TIM-3-His6) (human, UniProt Q8TDQ0 22-200); test: SPR (Biacore)
# T4 construct: Novoprotein Cat# C356; the entry includes the His tag; also called hTIM3-His; human TIM3-His6
# [4] = target: T4, human TIM-3 ECD with 6-His tag (hu …); test: SPR (Biacore), relative to 3903E11 (VH1.0, VL1.0)
Kd [1],MFI at 0.1 µg/ml [2],MFI at 1 µg/ml [2],MFI at 10 µg/ml [2],Kd (cyno TIM-3-His6),Kd [3],Human TIM3 KD Ratio to Parent [4],Binder
51.6 nM,–,–,–,–,–,–,"27.12E12 (antibody, V domains shown) VH: EVQLQQSGAELVRPGALVKLSCKASGFNIKDYYMYWMKQRPEQGLEWIGWIDPENVKTIYDPKFQGRATLTADTSSNTAYLQLSSLTSEDTAVYYCTRDFGYVGFFDVWGAGTTVTVSS VL: DIVMTQSQKFMSTSVGDRVSVNCKASQNVGTNVVWYQQKPGQSPKALIYSASYRYSGVPDRFTGSGSGTDFTLTISTVQSEDLAEYFCQQYNSYPLTFGGGTKLEIKR"
–,148 MFI,1460 MFI,1870 MFI,6.5 nM,2.7 nM,0.78,"3903E11 (VH1.0, VL1.1) (antibody, human IgG1, lambda, Pair-wise combination of parental heavy chain and VL1.1-CL; IgG1 lambda) heavy: not shown light: QSALTQPRSVSGSPGQSVTISCTGTSSDVGGYNYVSWYQQHPGKAPKLMIFDVSKRPSGVPDRFSGSKSGNTASLTISGLQAEDEADYYCSSYADSVVFGGGTKVTVLGQPKAAPSVTLFPPSSEELQANKATLVCLISDFYPGAVTVAWKADSSPVKAGVETTTPSKQSNNKYAASSYLSLTPEQWKSHKSYSCQVTHEGSTVEKTVAPTECS"
–,148 MFI,1400 MFI,1930 MFI,5.6 nM,1.8 nM,0.52,"3903E11 (VH1.2, VL1.1) (antibody, human IgG1, lambda, IgG1 lambda) heavy: not shown light: QSALTQPRSVSGSPGQSVTISCTGTSSDVGGYNYVSWYQQHPGKAPKLMIFDVSKRPSGVPDRFSGSKSGNTASLTISGLQAEDEADYYCSSYADSVVFGGGTKVTVLGQPKAAPSVTLFPPSSEELQANKATLVCLISDFYPGAVTVAWKADSSPVKAGVETTTPSKQSNNKYAASSYLSLTPEQWKSHKSYSCQVTHEGSTVEKTVAPTECS"
–,154 MFI,1390 MFI,–,17.9 nM,7.6 nM,–,"3903E11 (VH1.1, VL1.1) (antibody, human IgG1, lambda, IgG1 lambda) heavy: not shown light: QSALTQPRSVSGSPGQSVTISCTGTSSDVGGYNYVSWYQQHPGKAPKLMIFDVSKRPSGVPDRFSGSKSGNTASLTISGLQAEDEADYYCSSYADSVVFGGGTKVTVLGQPKAAPSVTLFPPSSEELQANKATLVCLISDFYPGAVTVAWKADSSPVKAGVETTTPSKQSNNKYAASSYLSLTPEQWKSHKSYSCQVTHEGSTVEKTVAPTECS"
–,156 MFI,1510 MFI,1950 MFI,5.5 nM,2.2 nM,0.62,"3903E11 (VH1.2, VL1.0) (antibody, human IgG1, lambda, IgG1 lambda) heavy: not shown light: SYELTQPRSVSGSPGQSVTISCTGTSSDVGGYNYVSWYQQHPGKAPKLMIFDVSKRPSGVPDRFSGSKSGNTASLTISGLQAEDEADYYCSSYADSVVFGGGTKVTVLGQPKAAPSVTLFPPSSEELQANKATLVCLISDFYPGAVTVAWKADSSPVKAGVETTTPSKQSNNKYAASSYLSLTPEQWKSHKSYSCQVTHEGSTVEKTVAPTECS"
–,105 MFI,1050 MFI,–,19.5 nM,4.7 nM,–,"3903E11 (VH1.3, VL1.1) (antibody, human IgG1, lambda, IgG1 lambda) heavy: not shown light: QSALTQPRSVSGSPGQSVTISCTGTSSDVGGYNYVSWYQQHPGKAPKLMIFDVSKRPSGVPDRFSGSKSGNTASLTISGLQAEDEADYYCSSYADSVVFGGGTKVTVLGQPKAAPSVTLFPPSSEELQANKATLVCLISDFYPGAVTVAWKADSSPVKAGVETTTPSKQSNNKYAASSYLSLTPEQWKSHKSYSCQVTHEGSTVEKTVAPTECS"
–,82 MFI,1020 MFI,–,–,4.5 nM,–,"3903E11 (VH1.3, VL1.3) (antibody, IgG1, IgG1 lambda) heavy: not shown light: QSALTQPRSVSGSPGQSVTISCTGTSSDVGGYNYVSWYQQHPGKAPKLMIYDVSKRPSGVPDRFSGSKSGNTASLTISGLQAEDEADYYCSSYADSVVFGGGTKVTVLGQPKAAPSVTLFPPSSEELQANKATLVCLISDFYPGAVTVAWKADSSPVKAGVETTTPSKQSNNKYAASSYLSLTPEQWKSHKSYSCQVTHEGSTVEKTVAPTECS"
–,162 MFI,1540 MFI,1930 MFI,6.7 nM,2.7 nM,–,"3903E11 (VH1.0, VL1.3) (antibody, IgG1, IgG1 lambda) heavy: not shown light: QSALTQPRSVSGSPGQSVTISCTGTSSDVGGYNYVSWYQQHPGKAPKLMIYDVSKRPSGVPDRFSGSKSGNTASLTISGLQAEDEADYYCSSYADSVVFGGGTKVTVLGQPKAAPSVTLFPPSSEELQANKATLVCLISDFYPGAVTVAWKADSSPVKAGVETTTPSKQSNNKYAASSYLSLTPEQWKSHKSYSCQVTHEGSTVEKTVAPTECS"
–,87 MFI,958 MFI,–,19.9 nM,6 nM,–,"3903E11 (VH1.3, VL1.2) (antibody, human IgG1, lambda, IgG1 lambda) heavy: not shown light: SYELTQPRSVSGSPGQSVTISCTGTSSDVGGYNYVSWYQQHPGKAPKLMIYDVSKRPSGVPDRFSGSKSGNTASLTISGLQAEDEADYYCSSYADSVVFGGGTKVTVLGQPKAAPSVTLFPPSSEELQANKATLVCLISDFYPGAVTVAWKADSSPVKAGVETTTPSKQSNNKYAASSYLSLTPEQWKSHKSYSCQVTHEGSTVEKTVAPTECS"
–,114 MFI,1300 MFI,1900 MFI,6.3 nM,1.6 nM,–,"3903E11 (VH1.2, VL1.2) (antibody, human IgG1, lambda, IgG1 lambda) heavy: not shown light: SYELTQPRSVSGSPGQSVTISCTGTSSDVGGYNYVSWYQQHPGKAPKLMIYDVSKRPSGVPDRFSGSKSGNTASLTISGLQAEDEADYYCSSYADSVVFGGGTKVTVLGQPKAAPSVTLFPPSSEELQANKATLVCLISDFYPGAVTVAWKADSSPVKAGVETTTPSKQSNNKYAASSYLSLTPEQWKSHKSYSCQVTHEGSTVEKTVAPTECS"
–,140 MFI,1340 MFI,1930 MFI,8.6 nM,3.4 nM,–,"3903E11 (VH1.0, VL1.2) (antibody, human IgG1, lambda, IgG1 lambda) heavy: not shown light: SYELTQPRSVSGSPGQSVTISCTGTSSDVGGYNYVSWYQQHPGKAPKLMIYDVSKRPSGVPDRFSGSKSGNTASLTISGLQAEDEADYYCSSYADSVVFGGGTKVTVLGQPKAAPSVTLFPPSSEELQANKATLVCLISDFYPGAVTVAWKADSSPVKAGVETTTPSKQSNNKYAASSYLSLTPEQWKSHKSYSCQVTHEGSTVEKTVAPTECS"
–,105 MFI,957 MFI,–,19.3 nM,6.4 nM,–,"3903E11 (VH1.3, VL1.0) (antibody, human IgG1, lambda, IgG1 lambda) heavy: not shown light: SYELTQPRSVSGSPGQSVTISCTGTSSDVGGYNYVSWYQQHPGKAPKLMIFDVSKRPSGVPDRFSGSKSGNTASLTISGLQAEDEADYYCSSYADSVVFGGGTKVTVLGQPKAAPSVTLFPPSSEELQANKATLVCLISDFYPGAVTVAWKADSSPVKAGVETTTPSKQSNNKYAASSYLSLTPEQWKSHKSYSCQVTHEGSTVEKTVAPTECS"
–,–,–,–,22.3 nM,7.4 nM,–,"3903E11 (VH1.1, VL1.3) (antibody, IgG1, IgG1 lambda) heavy: not shown light: QSALTQPRSVSGSPGQSVTISCTGTSSDVGGYNYVSWYQQHPGKAPKLMIYDVSKRPSGVPDRFSGSKSGNTASLTISGLQAEDEADYYCSSYADSVVFGGGTKVTVLGQPKAAPSVTLFPPSSEELQANKATLVCLISDFYPGAVTVAWKADSSPVKAGVETTTPSKQSNNKYAASSYLSLTPEQWKSHKSYSCQVTHEGSTVEKTVAPTECS"
